In the nanobody polyreactivity screen of Harvey et al. (2022):

Experiment: yeast display, Sf9 membrane polyspecificity reagent, FACS + sequencing; frameworks hold sequencing errors
How it was run: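 Genes from sorted yeast were amplified by colony PCR, read by MiSeq 2 × 250 sequencing and filtered on CDR length. These cells carried a synthetic nanobody library in Saccharomyces cerevisiae BJ5465 and were sorted by FACS into low and high (top ~1%) gates on anti-HA and streptavidin fluorescence. Polyreactivity is labelled according to the gate of origin.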

Sequence | polyreactivity (PSR sort gate)
QVQLVESGGGLVQAGGSLRLSCAASGRILPYYAMGWYRQAPGKERELVAAITSGGSTYYADSVKGRFTISRDNAKNTVSLQMNSLKPEDTAVYYCATDVDKSLYDYWGQGTQVTVSS | low polyreactivity
QVQLVESGAGLVQAGGSLRLTCAASGSTFYRYAMGWYREAPGKERELVAAINTGGSTNYADSVKGRFTISRDNAKNTVYLQMYSMKPEDTAVYYCAARFQYYRKYDYWGQGTQVTVSS | low polyreactivity
QVQLVESGGGLVQAGGSLRLSCAASGLIFYKYAMGWYRQAPGKERELVAAIRWSGGSTYYADSVKGRFTISRDNAKNTVYLQMNSLKPEDTAVYYCAALSWNHQYEYWGQGTQVTVSS | high polyreactivity
QVQLVESGGALVQAGGSLRLSCAASGSIFSRNAMGWYRTAPGKERELVAGISTGGSTNYADSVKGRFTISRDNAKNTVYLQMTSLKPEDTAVYYCAAPLAYEGDYWGQGTQVTVSS | low polyreactivity
QVQLVESGAGLVQAGGSLRISCAASGFIFNEYAMGWYRQAPGKERELVAAISSGGSTYYADSVKGRFTISRDNAKNTVYLLINSLKPEDTAVYYCNALRRSQPWKYDYWGPGTQVTVSS | low polyreactivity
QVQLVESGGCLVQAGGSLRLSCAASGSIFYRNAMGWYRQAPGKERELVAAISSDGSTNYADSVKGRFTISRDNAKNTVYLQMNSLKPEDTAVYYCAAPWTQILDYWGQGTQVTVSS | low polyreactivity
QVQLVESGGGLVQAGGSLRLSCAASGFTFYYNDMGWYRQAPGKERELVATITNS | low polyreactivity
QVQLQESGDGLVQALGSLRLSCAASGYISGYYYMGWYRQAPGKERELVAGIDAFGSSTNYADCVKGRFTISRDNAKNTVYLQMNSPKPVDTAVYYCAAEYDDWDYHWYWGEGTQVTVSS | low polyreactivity
QVQLVESGGGLVQAGGSLRLSCAASGSTFYGYGMGWYREAPGKERELVAAITGSGDTTYYADSVKGRFTISRDNAKNTVYLQMNSLKREDTAVYYCNAGWHAEYDYWGQGTQVTVSS | low polyreactivity
QVQHVETGGGLVQAGGSLRLSCAATGYTLYRYPMGWYRQAPGKERELVARISYRTGSTYYADSVKGRFTISRDKAKNTVYLQMNSLKPEDTAVYYCAKYPGISGYKYWGQGTQVTVSS | high polyreactivity
QVQLQESSGGLVQAGGTLRMSCAASGTIFHFHIMGWYRQAPGKEREFVAAISYGTSTYYADSVKCRFTISRDNAKNTVFLQMNSQNPEDNEVYYCAVYDYLEVYCWYWGQGTQVTVSS | low polyreactivity
QVQLVESGGGLVQAGGSLRLSCAASGRTFYGYAMGWYRQAPGKEREFVAAITYSGGRTYYADSVKGRFTISRDNAKNTVYLQMNSLKPEETAVYYCNAYYYYVNQGRYEYGYWGQGTQVTVSS | high polyreactivity
QVQLVESWGGLVQAGGSLRLSCAASGSIFPRNAMGWYRQAPGKERELVATISSGGSTYYADSVKGRFTISRDNAKNTVYLQMNSLKPEDTAVYYCAAEYVVRAIDVDYDYWGQGTQVTVSS | high polyreactivity
QVQLVESCGVLVQAGGSLRLSCAASGFILYGNAMGWYRQAHGKERELVAAISRRGGSTYYADSVKGRFTISRDNAKNTVYLQMNSLKPEDTAVYYCAKDGPGGGTRIYDYWGLGTQVTVSS | high polyreactivity
QVQLVESGGGLDQAGGSLRLSCAASGRIFEYNAMGWYRQAPGKERELVAAINYNDVSTYYADSVKGRFTISRDNAKNTVFFQINSLKPEDTAVYYCNVYGDKWSAAYGEYVYWGQGTQVTVSS | low polyreactivity
QVQLVESGGGLVQAGGSLRLSCAASGFTFGAYAMGWSRQAPGKERELVASISWSGGSTYYADSVKGRFTISRDNAKNTVYLQMNSLKPEDTAVYDCNKDFVYPDDDGLFDYWGQGTQVTVSS | low polyreactivity
QVQLVESGGGLVQAGGSLRLSCAASGRTFYVYAMGWYIQAPGKERELVAAISWGGGSTYYSDSVKGRFTISRDNAKNTVYLQMNSLKPEDTAVYFCAADKTRYRLGRDYWGQGTQVTVSS | low polyreactivity
QVQLVESGGGLVQAGGSLRLSCAASGIIFKGYAMGWYRQAPGKERELVAAISQSGGSTYYADSVKGRFTISRDNAKNTVYLQMNSLKPEDTAVYYCNARYSRVVPRYYYWGQGTQVTVSS | high polyreactivity
QVQLVESGGGLVQAGGSLRLSCAASGIIFAYYAMGWYRQAPGKERELVAAIDYSGASTYYADSVKGRFTISRDNAKNTVYLQMNSLKPEDTAVYYCAKYQYDYYTYDYWGQGTQVTVSS | low polyreactivity
QVQLVESGGGLVQAGGSLRLSCAASGSIFGTYAMGWYRQAPGKERELVAAITGNGGRTYYADSVKGRFTISRDNAKNTVYLQMNSLKPEDTAVYYCAKATSRRGFYYWGQGTQVTVSS | high polyreactivity
QVQLVESGGGLVQAGGSLRLSCAASGSISFYAMGWYRQAPGKERELVAAITTSGGRTYYADSVKGRFTISRDNAKNTVYLQMNSLKPEDTAVYYCNVASKGRYARYAAEYGSWGQGTQVTVSS | high polyreactivity
QVQLVESGGGLVQAGGSLRLSCAASGSILYRYAMGWSRPAPGKERELDAAISYNGGRTYYADSVKGRFSISRDNAKNTVYLQMNSLKPEDTAVYYCNAAGRDDAYDYWGQGTQVTVSS | high polyreactivity
QVQLVESGGGLVQAGGSLRLSCAASGRIFRINDMGWYIQAPGKERELVAAITWSGGSTYYADSVKGRFTISRDNAKNPVYLPMNSLKPEDTAGYYCAADQAYFWGYYYWGQGTQVTVSS | low polyreactivity
QVQLVESGGGLVQAGGSLRLSCAASGRTFEFYTMGWYRQAPGKERELVAAINWSGSRTYYADSVKGRFTISRDNAKNTVYLQMNSLKPEDTAVYYCNAGEKRGLISIQGYDYWGQGTQVTVSS | high polyreactivity
QVQLVVSGGGLDQARGSLSLSCAASGRNFTSYAMGWYRQAPWKERELVAAISWSVGSTYYADSVKGRFTISRDNAKNTVYLQMNSLKPEDTSVYYCNAVYPSVYPVSTRYYWGQGTQVTVSS | high polyreactivity
QVQLVESGGGLVQAGGSLRLSCAASGSTFYTYVMGWYRQAPGKERELVAAISSGGGNTYYADSVKGRFTISRDNAKYTVYLQMNSLKPEDTAVYYCAASHTSYYLRYGYWGQGTQVTVSS | high polyreactivity
QVQHVESGGGLVQAGGSLRLSCAASGSTFTAYAMGWYRQAPGKVSELVAVITSGGGTYYADSVKVRFTISRDNANNTDYLQMNSLKPEDTAVYYCHSARTYAGTYIYRYGYWGQGTQVTVSS | high polyreactivity
QVHLVESGGGLVQAGGRLLLSCAASGLILRTYGMGWYRQAPRKERELVAVISSGGSTYYADSVNGRFTISRDNAKNTVYLQMNSLKPEDTAVYYCAVRSSWYEGDYWGQGTQVTVSS | low polyreactivity
QVHLVESGVGLDQAGGSLRLSCASTGYIFETYAMGWYRPATGKERELVAAISRGASTYYADSVKGRFTISRDNAQNTVSLQLNSLKQEDTAVYYCAPTRRSWHRYGYWGQGTQVTVSS | low polyreactivity
QVQLVESGGGLVQAGGSLRLSCAASGNTFDIYAMGWYRQAPGKERELVAAISSSGGSTYYADSVKGRFTISRDNAKNTVYLQMNSLKPEDTAVYYFNARHRQWARGYWGQGTQVTVSS | high polyreactivity
